Results published in article PMC2621353, “Residues Clustered in the Light-Sensing Knot of Phytochrome B are Necessary for Conformer-Specific Binding to Signaling Partner PIF3” (PLoS Genetics, 2009).

B1: full-length phytochrome B (phyB), wild type, in vitro translated [modified: 35S-methionine labelled; 35S-methionine labelled] [Arabidopsis thaliana] / GAD-PIF3, in vitro translated [modified: 35S-methionine labelled … (parent)
chain 1: MVSGVGGSGGGRGGGRGGEEEPSSSHTPNNRRGGEQAQSSGTKSLRPRSNTESMSKAIQQYTVDARLHAVFEQSGESGKSFDYSQSLKTTTYGSSVPEQQITAYLSRIQRGGYIQPFGCMIAVDESSFRIIGYSENAREMLGIMPQSVPTLEKPEILAMGTDVRSLFTSSSSILLERAFVAREITLLNPVWIHSKNTGKPFYAILHRIDVGVVIDLEPARTEDPALSIAGAVQSQKLAVRAISQLQALPGGDIKLLCDTVVESVRDLTGYDRVMVYKFHEDEHGEVVAESKRDDLEPYIGLHYPATDIPQASRFLFKQNRVRMIVDCNATPVLVVQDDRLTQSMCLVGSTLRAPHGCHSQYMANMGSIASLAMAVIINGNEDDGSNVASGRSSMRLWGLVVCHHTSSRCIPFPLRYACEFLMQAFGLQLNMELQLALQMSEKRVLRTQTLLCDMLLRDSPAGIVTQSPSIMDLVKCDGAAFLYHGKYYPLGVAPSEVQIKDVVEWLLANHADSTGLSTDSLGDAGYPGAAALGDAVCGMAVAYITKRDFLFWFRSHTAKEIKWGGAKHHPEDKDDGQRMHPRSSFQAFLEVVKSRSQPWETAEMDAIHSLQLILRDSFKESEAAMNSKVVDGVVQPCRDMAGEQGIDELGAVAREMVRLIETATVPIFAVDAGGCINGWNAKIAELTGLSVEEAMGKSLVSDLIYKENEATVNKLLSRALRGDEEKNVEVKLKTFSPELQGKAVFVVVNACSSKDYLNNIVGVCFVGQDVTSQKIVMDKFINIQGDYKAIVHSPNPLIPPIFAADENTCCLEWNMAMEKLTGWSRSEVIGKMIVGEVFGSCCMLKGPDALTKFMIVLHNAIGGQDTDKFPFPFFDRNGKFVQALLTANKRVSLEGKVIGAFCFLQIPSPELQQALAVQRRQDTECFTKAKELAYICQVIKNPLSGMRFANSLLEATDLNEDQKQLLETSVSCEKQISRIVGDMDLESIEDGSFVLKREEFFLGSVINAIVSQAMFLLRDRGLQLIRDIPEEIKSIEVFGDQIRIQQLLAEFLLSIIRYAPSQEWVEIHLSQLSKQMADGFAAIRTEFRMACPGEGLPPELVRDMFHSSRWTSPEGLGLSVCRKILKLMNGEVQYIRESERSYFLIILELPVPRKRPLSTASGSGDMMLMMPY
chain 2: MPLFELFRLTKAKLESAQDRNPSPPVDEVVELVWENGQISTQSQSSRSRNIPPPQANSSRAREIGNGSKTTMVDEIPMSVPSLMTGLSQDDDFVPWLNHHPSLDGYCSDFLRDVSSPVTVNEQESDMAVNQTAFPLFQRRKDGNESAPAASSSQYNGFQSHSLYGSDRARDLPSQQTNPDRFTQTQEPLITSNKPSLVNFSHFLRPATFAKTTNNNLHDTKEKSPQSPPNVFQTRVLGAKDSEDKVLNESVASATPKDNQKACLISEDSCRKDQESEKAVVCSSVGSGNSLDGPSESPSLSLKRKHSNIQDIDCHSEDVEEESGDGRKEAGPSRTGLGSKRSRSAEVHNLSERRRRDRINEKMRALQELIPNCNKVDKASMLDEAIEYLKSLQLQVQIMSMASGYYLPPAVMFPPGMGHYPAAAAAMAMGMGMPYAMGLPDLSRGGSSVNHGPQFQVSGMQQQPVAMGIPRVSGGGIFAGSSTIGNGSTRDLSGSKDQTTTNNNSNLKPIKRKQGSSDQFCGSS

Variants of: B1
Assay: in vitro co-immunoprecipitation
Conditions: with GAD-PIF3, in vitro translated [modified: 35S-methionine labelled, GAD-PIF3 as bait, phyB as prey, 35S-met in vitro translated proteins
[1] = phyB in Pfr form, parent: 17, read off a plot
[2] = phyB in Pr form, parent: 1, read off a plot
[3] = phyB in Pfr form, parent: 13, read off a plot
[4] = phyB in Pfr form, parent: 3.8, read off a plot
[5] = phyB in Pfr form, parent: 9.1, read off a plot

| screen value (relative to wild-type phyB Pr = 1) [1] | screen value (relative to wild-type phyB Pr = 1) [2] | screen value (relative to wild-type phyB Pr = 1) [3] | screen value (relative to wild-type phyB Pr = 1) [4] | screen value (relative to wild-type phyB Pr = 1) [5] | Variant |
| --- | --- | --- | --- | --- | --- |
| 4.8 | 2.4 | – | – | – | chain 1 S367P |
| 3.9 | 2 | – | – | – | chain 1 V273L |
| – | 1.4 | 1.7 | – | – | chain 1 S343Y |
| – | 2 | 1.9 | – | – | chain 1 V264E |

More lines, now with the values behind:

| Variant | screen value (relative to wild-type phyB Pr = 1) [1] | screen value (relative to wild-type phyB Pr = 1) [2] | screen value (relative to wild-type phyB Pr = 1) [3] | screen value (relative to wild-type phyB Pr = 1) [4] | screen value (relative to wild-type phyB Pr = 1) [5] |
| --- | --- | --- | --- | --- | --- |
| chain 1 L256C | – | 1 | 2.8 | – | – |
| chain 1 C119Y | – | 0.45 | – | 0.9 | – |
| chain 1 I308T | 2.3 | 1 | – | – | – |
| chain 1 G348D | – | 1 | 2.6 | – | – |
| chain 1 P411L | – | 1 | – | – | 4.1 |
| chain 1 S134G | – | 1.6 | – | – | 3.1 |
| chain 1 R415W | – | 0.45 | – | 0.58 | – |
| chain 1 C345R | 5.1 | 2 | – | – | – |
